Results reported in patent publication US20130266574A1 (Regeneron, published 2013).
Read-outs that look alike come from different tables or passages of the source.

B1: amino acid residues 26-148 of human ANGPTL4 fused in-line to mouse IgG2a (hANGPTL4-mFc) (Fc fusion)
chain: GPVQSKSPRFASWDEMNVLAHGLLQLGQGLREHAERTRSQLSALERRLSACGSACQGTEGSTDLPLAPESRVDPEVLHSLQTQLKAQNSRIQQLFHKVAQQQRHLEKQHLRIQHLQSQFGLLDPGSLEFALERNSGEPRGPTIKPCPPCKCPAPNLLGGPSVFIFPPKIKDVLMISLSPIVTCVVVDVSEDDPDVQISWFVNNVEVHTAQTQTHREDYNSTLRVVSALPIQHQDWMSGKEFKCKVNNKDLPAPIERTISKPKGSVRAPQVYVLPPPEEEMTKKQVTLTCMVTDFMPEDIYVEWTNNGKTELNYKNTEPVLDSDGSYFMYSKLRVEKKNWVERNSYSCSVVHEGLHNHHTTKSFSRTPGK
B2: full-length hANGPTL4 (amino acid residues 26-406 of SEQ ID NO:476) with a C-terminal hexa-histidine tag (ligand)
chain: GPVQSKSPRFASWDEMNVLAHGLLQLGQGLREHAERTRSQLSALERRLSACGSACQGTEGSTDLPLAPESRVDPEVLHSLQTQLKAQNSRIQQLFHKVAQQQRHLEKQHLRIQHLQSQFGLLDHKHLDHEVAKPARRKRLPEMAQPVDPAHNVSRLHRLPRDCQELFQVGERQSGLFEIQPQGSPPFLVNCKMTSDGGWTVIQRRHDGSVDFNRPWEAYKAGFGDPHGEFWLGLEKVHSITGDRNSRLAVQLRDWDGNAELLQFSVHLGGEDTAYSLQLTAPVAGQLGATTVPPSGLSVPFSTWDQDHDLRRDKNCAKSLSGGWWFGTCSHSNLNGQYFRSIPQQRQKLKKGIFWKTWRGRYYPLQATTMLIQPMAAEAASHHHHHH

Experiments:
bovine LPL [1] = target: T1, bovine LPL (bovine, UniProt P11151 29-478); test: cell-based or functional assay
T1 sequence (looked up): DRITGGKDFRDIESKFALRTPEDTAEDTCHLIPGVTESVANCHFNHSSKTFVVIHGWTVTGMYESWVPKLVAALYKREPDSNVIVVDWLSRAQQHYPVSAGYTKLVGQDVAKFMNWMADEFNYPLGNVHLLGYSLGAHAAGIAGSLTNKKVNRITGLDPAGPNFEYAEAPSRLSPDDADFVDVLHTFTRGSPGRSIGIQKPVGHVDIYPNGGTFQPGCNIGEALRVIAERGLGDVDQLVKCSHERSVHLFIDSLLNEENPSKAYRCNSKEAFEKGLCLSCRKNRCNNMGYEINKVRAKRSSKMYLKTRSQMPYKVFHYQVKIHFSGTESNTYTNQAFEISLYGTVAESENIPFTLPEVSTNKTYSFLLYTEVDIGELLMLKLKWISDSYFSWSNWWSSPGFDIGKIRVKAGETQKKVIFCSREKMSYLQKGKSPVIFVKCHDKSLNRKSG

[2] = target: T2, cynomolgus monkey ANGPTL4 N-terminal region (amino acid residues 1-130 of SEQ ID NO:490) with a C-terminal … (cynomolgus monkey (Macaca fascicularis), UniProt Q9BY76 26-130 (human entry)); test: SPR (Biacore), 25° C., pH 7.2, antigen amino-coupled 1,028 RU
T2 construct: also called MfANGPTL4(1-130)-His
T2 chain: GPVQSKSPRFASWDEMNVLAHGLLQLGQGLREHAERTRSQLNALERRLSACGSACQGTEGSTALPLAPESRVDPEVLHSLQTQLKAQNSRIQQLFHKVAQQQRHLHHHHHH
Procedure: (§1) Kinetic analysis was performed to measure kₐ and kd, and KD values and half-life of antigen/antibody complex dissociation were calculated. The results are shown in Table 4 (H1H268P) and Table 5 (H1H284P).

[3] = target: B1; test: SPR (Biacore), 25° C., pH 7.2, antigen captured by anti-mFc
Procedure: as §1

[4] = target: B2; test: SPR (Biacore), 25° C., pH 7.2, antigen amino-coupled 450 RU
Procedure: as §1

[5] = target: B1; test: SPR (Biacore), 25° C., pH 5.75, antigen captured by anti-mFc
Procedure: as §1

[6] = target: B2; test: SPR (Biacore), 25° C., pH 5.75, antigen amino-coupled 450 RU
Procedure: as §1

[7] = target: T2, cynomolgus monkey ANGPTL4 N-terminal …; test: SPR (Biacore), 25° C., pH 5.75, antigen amino-coupled 1,028 RU
Procedure: as §1

[8] = target: T2, cynomolgus monkey ANGPTL4 N-terminal …; test: SPR (Biacore), 25° C., pH 5.75, antigen amino-coupled 1,028 RU; Fab, not full mAb; pH 5.75
Procedure: as §1

bovine LPL [9] = target: T1, bovine LPL; test: cell-based or functional assay; remark: listed apart in the source
bovine LPL [10] = target: T1, bovine LPL; test: cell-based or functional assay; remark: listed apart in the source

Molecule | Kd [2] | koff [2] | kon [2] | t1/2 [2] | Kd [3] | koff [3] | kon [3] | t1/2 [3] | Kd [4] | koff [4] | kon [4] | t1/2 [4] | Kd [5] | koff [5] | kon [5] | t1/2 [5] | Kd [6] | koff [6] | kon [6] | EC50 (nM) of the ANGPTL4 protein in the LPL assay (bovine LPL [9]) | other results
cynomolgus monkey ANGPTL4 N-terminal region (amino acid residues 26-148) with an N-terminal hexa-histidine tag (from UniProt Q9BY76 26-148) (ligand) | – | – | – | – | – | – | – | – | – | – | – | – | – | – | – | – | – | – | – | – | EC50 (nM) of the ANGPTL4 protein in the LPL assay (bovine LPL [1]): 3.89 nM
H1H268P Fab fragment (Fab, V domains shown, Fab made by papain digestion of H1H268P (IgG1); also called H1H268 Fab) VH: QVQLQESGAGLLKPSETLSLTCTVYGGSFSIHHWTWIRHPPGKGLEWIGEINHRGSTNYNPSLKSRVTISIDTSKNQFSLKLSAVTAADTAVYYCARGLRFLDWLSSYFDYWGQGTLVTVSS VL: DIQMTQSPSSLSASVGDRVTITCRASQGISDYLAWYQQKPGKVPNLLIYAASALQSGVPSRFSGSGSGTDFTLTISSLQPEDVATYYCQNYNTAPLTFGGGTKVEIK | 6.42 nM | 0.00171 s⁻¹ | 267000 M⁻¹ s⁻¹ | 7 min | 2 nM | 0.000601 s⁻¹ | 300000 M⁻¹ s⁻¹ | 19 min | 16.3 nM | 0.0118 s⁻¹ | 726000 M⁻¹ s⁻¹ | 1 min | 17.5 nM | 0.00304 s⁻¹ | 174000 M⁻¹ s⁻¹ | 4 min | 14.8 nM | 0.00657 s⁻¹ | 444000 M⁻¹ s⁻¹ | – | t1/2 [6]: 2 min; koff [7]: 0.00432 s⁻¹; kon [7]: 312000 M⁻¹ s⁻¹; t1/2 [7]: 3 min; Kd [8]: 13.8 nM
mANGPTL4-His [R26-S410 of mANGPTL4 (SEQ ID NO: 478) fused with an AS linker to a C-terminal 6-histidine tag] (ligand) RPAQPEPPRFASWDEMNLLAHGLLQLGHGLREHVERTRGQLGALERRMAACGNACQGPKGKDAPFKDSEDRVPEGQTPETLQSLQTQLKAQNSKIQQLFQKVAQQQRYLSKQNLRIQNLQSQIDLLAPTHLDNGVDKTSRGKRLPKMTQLIGLTPNATHLHRPPRDCQELFQEGERHSGLFQIQPLGSPPFLVNCEMTSDGGWTVIQRRLNGSVDFNQSWEAYKDGFGDPQGEFWLGLEKMHSITGNRGSQLAVQLQDWDGNAKLLQFPIHLGGEDTAYSLQLTEPTANELGATNVSPNGLSLPFSTWDQDHDLRGDLNCAKSLSGGWWFGTCSHSNLNGQYFHSIPRQRQERKKGIFWKTWKGRYYPLQATTLLIQPMEATAASASHHHHHH | – | – | – | – | – | – | – | – | – | – | – | – | – | – | – | – | – | – | – | 0.63 nM | –
B1 | – | – | – | – | – | – | – | – | – | – | – | – | – | – | – | – | – | – | – | 0.5 nM | EC50 (nM) of the ANGPTL4 protein in the LPL inhibition assay (bovine LPL [10]): 0.29 nM
H1H284P Fab fragment (Fab, V domains shown, Fab made by papain digestion of H1H284P (IgG1); also called H1H284 Fab) VH: QVQLVESGGGVVQPGRSLRLSCAASGFTFSSYGMHWVRQAPGKGLEWMAVISFDGGNKNNADSVKGRFTISRDNSKNTLYLQMNSLRAEDTAVYYCAKEGDRSGHPYFYYYGLDVWGQGTTVTVS VL: DIQLTQSPSFLSASVGDRVTITCWASQGISSYLAWYQQKPGKAPKLLIYAASTLQSGVPSRFSGSGSETEFTLTISSLQPEDFATYYCQQLHSYPLTFGGGTKVEIK | 10.1 nM | 0.00313 s⁻¹ | 310000 M⁻¹ s⁻¹ | 4 min | 0.823 nM | 0.000202 s⁻¹ | 245000 M⁻¹ s⁻¹ | 57 min | 0.31 nM | 0.000344 s⁻¹ | 1.11e+06 M⁻¹ s⁻¹ | 34 min | 3.4 nM | 0.0016 s⁻¹ | 472000 M⁻¹ s⁻¹ | 7 min | 1.44 nM | 0.00173 s⁻¹ | 1.21e+06 M⁻¹ s⁻¹ | – | t1/2 [6]: 7 min; koff [7]: 0.00619 s⁻¹; kon [7]: 724000 M⁻¹ s⁻¹; t1/2 [7]: 2 min; Kd [8]: 8.54 nM
B2 | – | – | – | – | – | – | – | – | – | – | – | – | – | – | – | – | – | – | – | 6 nM | EC50 (nM) of the ANGPTL4 protein in the LPL inhibition assay (bovine LPL [10]): 4.54 nM
